Test [1] concerns the target T1, human IL-8 (human, UniProt P10145 28-99, limits assumed).
T1 construct: also called hIL-8; hIL8
Put plainly: Biacore SPR, KL: anti-mouse Fc capture. (SPR reads the build-up and loss of mass on a sensor chip optically.)
Protocol: (§1) Supernatant or purified antibody from parental mouse mAb is captured on the anti-mouse IgG-Fc surface. Defined concentrations of each analyte (IL8, Gro-band ENA-78) are passed over the immobilized or captured antibody surface, a separate capture event is used for each analyte injection. After each injection of analyte the surface is regenerated by injection
(§2) An injection of buffer is also injected over the antibody captured surface and this is used for double referencing. The data is analyzed using the analysis software inherent to the machine, using the 1:1 model of binding.

The target of test [2] is T2, human Gro-beta (human, UniProt P19875 35-107).
T2 construct: also called Gro-β; hGROβ
Briefly: Biacore SPR, KL: anti-mouse Fc capture.
Protocol: as §1, §2

For test [3], the target named is T3, human ENA-78 (human, UniProt P42830 37-114, limits assumed).
T3 construct: also called hENA-78; CXCL5
Put plainly: Biacore SPR, KL: anti-mouse Fc capture.
Protocol: as §1, §2

Test [4] addresses T4, human Gro-alpha (human, UniProt P09341 35-107).
T4 construct: also called Gro-α; hGROα
Briefly: TRFIA, chemokine coated on plate, biotinylated anti-mouse IgG and streptavidin-europium detection.
Protocol: (§3) Briefly, each antigen (human IL-8, Gro-alpha, Gro-beta, Gro-gamma, GCP-2, and ENA-78, and hIL-18 when used as negative control) is individually coated onto a 96-well immunofluorescent plate. The plates are then washed and blocked with a commercially available blocking solution. Blocking solution is emptied and samples containing the mAb are added into each well and incubated for 40 to 60 minutes (this allows the mAb to bind to the target chemokines). The plates are then washed again and a detection Ab is added to each well. […] The detection antibody is conjugated to either europium or biotin. Following another round of washing, to remove unbound detection Ab, a solution of streptavidin-europium was added to biotin detected assays. Streptavidin-europium binds to the biotin allowing for detection. After a final wash to remove unbound streptavidin-europium, or in the case of the humanized MAb assay after the europium conjugate secondary is washed, each well is filled with a chelating detergent solution to activate the europium producing fluorescence. The greater the fluorescence recorded is directly proportionate to the amount of detection Ab present in the well which is directly linked and proportionate to the amount of the chemokine binding mAb.

Test [5] addresses T1, human IL-8. The test is described as above.
Protocol: as §3
Test [6] has as its target T2, human Gro-beta. The description is as above.
Protocol: as §3
Test [7] addresses T3, human ENA-78. The description is as above.
Protocol: as §3
Test [8] has as its target T5, human Gro-gamma (human, UniProt P19876 35-107).
T5 construct: also called Gro-γ; CXCL3
Described as above.
Protocol: as §3

Test [9] deals with T1, human IL-8. Briefly: Biacore SPR, BE: mAb amine-coupled.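 Also: analytes IL-8, Gro-b and ENA-78 flowed at defined concentrations over the antibody surface, buffer injection used for double referencing, kinetics fitted to a 1:1 binding model.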
Protocol: (§4) For experiment designated BE, purified antibodies directly immobilized to the chip by amine coupling was used.
(§5) Defined concentrations of each analyte (IL8, Gro-band ENA-78) are passed over the immobilized or captured antibody surface, a separate capture event is used for each analyte injection. After each injection of analyte the surface is regenerated by injection
as §2
Test [10] concerns the target T2, human Gro-beta. Briefly: Biacore SPR, BE: mAb amine-coupled.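 Also: analytes IL-8, Gro-b and ENA-78 flowed at defined concentrations over the antibody surface, buffer injection used for double referencing, kinetics fitted to a 1:1 binding model.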
Protocol: as §4, §5, §2
Test [11] addresses T3, human ENA-78. Put plainly: Biacore SPR, BE: mAb amine-coupled.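 Also: analytes IL-8, Gro-b and ENA-78 flowed at defined concentrations over the antibody surface, buffer injection used for double referencing, kinetics fitted to a 1:1 binding model.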
Protocol: as §4, §5, §2
Test [12] addresses T4, human Gro-alpha. Put plainly: TRFIA, chemokine coated on plate, biotinylated anti-human IgG Fab2 reagent and streptavidin-europium detection.
Protocol: as §3
The target of test [13] is T1, human IL-8. The test is described as above.
Protocol: as §3
The target in test [14] is T2, human Gro-beta. The test is described as above.
Protocol: as §3
Test [15] concerns the target T3, human ENA-78. The test is described as above.
Protocol: as §3
Test [16] addresses T6, human GCP-2 (human, UniProt P80162 38-114, limits assumed).
T6 construct: also called hGCP-2; CXCL6
The test is described as above.
Protocol: as §3

The target in test [17] is T5, human Gro-gamma. The description is as above.
Protocol: as §3
In the next test the target is T7, hIL-18 (Homo sapiens, UniProt Q14116).
T7 construct: Printed on the sheets: 'hIL-18 run as a negative control'; also called human IL-18
Put plainly: TRFIA, hIL-18 coated on plate, biotinylated anti-human IgG Fab2 reagent and streptavidin-europium detection.

The target of test [18] is T4, human Gro-alpha. Put plainly: TRFIA, chemokine coated on plate, europium anti-human IgG detection; antibody concentration not given.
The target of test [19] is T6, human GCP-2. Described as above.
Protocol: as §3
In test [20] the target is T5, human Gro-gamma. Described as above.
Protocol: as §3
The target in test [21] is T1, human IL-8. Briefly: Biacore SPR, Protein A capture.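 Also: purified antibody captured on Protein A immobilised on a CM5 chip, chemokine analytes flowed over at defined concentrations, buffer injection for double referencing, kinetics fitted with a 1:1 binding model.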
Description: (§6) A Protein A capture method was used to generate kinetics for the humanised and chimeric constructs as follows:
(§7) Protein A is immobilised on a CM5 chip by primary amine coupling in accordance with the manufactures instructions. Purified humanised or chimeric antibody is captured on the Protein A surface. After capture defined concentrations of each analyte (IL8, Gro-β and ENA-78) are passed over the antibody captured surface, a separate capture event is used for each analyte injection. […] An injection of buffer is also injected over the antibody captured surface and this is used for double referencing. The data is analysed using the analysis software inherent to the machine, using the 1:1 model of binding.
The target in test [22] is T3, human ENA-78. Put plainly: Biacore SPR, Protein A capture.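 Also: purified antibody captured on Protein A immobilised on a CM5 chip, chemokine analytes flowed over at defined concentrations, buffer injection for double referencing, kinetics fitted with a 1:1 binding model.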
Description: as §6, §7

This is an account of results in patent publication US20080262203A1 (published 2008).

“And” between values parts separate entries of the source, which are not always exact repeats. Equal entries are not always repeated.

Protocol for hIL-18: as §3

B1: mouse monoclonal antibody 656.35 (antibody, IgG2a, V domains shown)
VH: QVQLQQSGAELVRPGTSVTISCKASGYTFTNYWIVWVKQRPGHGLEWIGDLYSGGGYTFYSENFKGKATLTADTSSSTAYMHLISLTSEDSAVYFCARSGYDRTWFAHWGQGSLVTVSA
VL: DIKMTQSPSSMSASLGERVTITCQASQDIESYLSWYQQKPWKSPKTLIYYATRLADGVPSRFSGSGSGQDYSLTISSLESDDTATYYCLQHGESPPTFGAGTKLELKR
notes: Murine hybridoma mAb
B1: the Kd (as a rule, the equilibrium constant for the complex coming apart) came to 0.964 nM in the test with human IL-8 [1]; 0.526 nM with human Gro-beta [2]; 1.74 nM with human ENA-78 [3]; 0.0839 nM with human IL-8 [9]; 0.111 nM in the test with human Gro-beta [10]; 0.271 nM in the test with human ENA-78 [11]. Moreover, the koff (commonly the rate constant with which the complex falls apart) in the test with human IL-8 [1] was found to be 0.00148 s⁻¹; in the test with human Gro-beta [2] it was 0.00201 s⁻¹; in the test with human ENA-78 [3], 0.00187 s⁻¹; in the test with human IL-8 [9], 0.000687 s⁻¹; in the test with human Gro-beta [10], 0.00146 s⁻¹; with human ENA-78 [11], 0.000796 s⁻¹. The kon (commonly a measure of how fast the partners come together) with human IL-8 [1] is 1.53e+06 M⁻¹ s⁻¹; in the test with human Gro-beta [2], 3.82e+06 M⁻¹ s⁻¹; with human ENA-78 [3], 1.07e+06 M⁻¹ s⁻¹; with human IL-8 [9], 8.19e+06 M⁻¹ s⁻¹; with human Gro-beta [10], 1.32e+07 M⁻¹ s⁻¹; with human ENA-78 [11], 2.94e+06 M⁻¹ s⁻¹. Also, the half-maximal effective concentration (EC50 (read off the curve)) – broadly, the concentration giving half of the maximal effect – in the test with human Gro-alpha [4] is approximately 0.03 µg/mL; in the test with human IL-8 [5], approximately 0.03 µg/mL; with human Gro-beta [6], approximately 0.02 µg/mL; with human ENA-78 [7] it was approximately 0.02 µg/mL; with human Gro-gamma [8], approximately 0.02 µg/mL.

B2: Chimera Antibody (HcLc) made from 656.35 (antibody, human IgG1, kappa, V domains shown)
VH: QVQLQQSGAELVRPGTSVTISCKASGYTFTNYWIVWVKQRPGHGLEWIGDLYSGGGYTFYSENFKGKATLTADTSSSTAYMHLISLTSEDSAVYFCARSGYDRTWFAHWGQGSLVTVSS
VL: DIKMTQSPSSMSASLGERVTITCQASQDIESYLSWYQQKPWKSPKTLIYYATRLADGVPSRFSGSGSGQDYSLTISSLESDDTATYYCLQHGESPPTFGAGTKLELKR
notes: also called the Chimera Antibody; chimera (HcLc)
Regarding B2, the half-maximal effective concentration (EC50 (read off the curve)) in the test with human Gro-alpha [12] is approximately 0.05 µg/mL; with human IL-8 [13] it was approximately 0.07 µg/mL; with human Gro-beta [14] it was approximately 0.04 µg/mL; with human ENA-78 [15], approximately 0.04 µg/mL; with human GCP-2 [16], approximately 0.04 µg/mL; in the test with human Gro-gamma [17], approximately 0.04 µg/mL. In addition, the binding result with hIL-18 was “no binding (tested: 1000 ng/ml)”.

B3: mouse monoclonal antibody 81.1 (antibody, IgG2a, V domains shown)
VH: EVQLQQSGPELEKPGASVKISCKASGYSFTVYGMNWVRQSNGKSLEWIGNFDPYFSVTSYNQKFQDKATLTVDKSSSTAYMQLKNLTSEDSAVYFCARGSWETIFAYWGQGTLVTVSA
VL: QAVVTQESALTTSPGETVTLTCRSSTGAVTTSNYANWVQEKPDHLFTGLIGGTNNRAPGVPARFSGSLIGDKAALTITGAQTEDEAIYFCALWYSNHVFGGGTKLTVLQ
notes: Murine hybridoma mAb
Turning to B3, the Kd with human IL-8 [1] turned out to be 4.8 nM; with human Gro-beta [2], 0.113 nM; with human ENA-78 [3], 0.616 nM; with human IL-8 [9], 55.5 nM; with human Gro-beta [10], 0.0898 nM; in the test with human ENA-78 [11], 0.0239 nM. The koff with human IL-8 [1] worked out at 0.00932 s⁻¹; in the test with human Gro-beta [2], 0.000312 s⁻¹; with human ENA-78 [3] it was 0.000376 s⁻¹; with human IL-8 [9] it was 0.108 s⁻¹; with human Gro-beta [10] it was 0.000489 s⁻¹; in the test with human ENA-78 [11], 3.94e-06 s⁻¹. Also, the on-rate (kon) turned out to be 1.95e+06 M⁻¹ s⁻¹ in the test with human IL-8 [1]; 2.76e+06 M⁻¹ s⁻¹ with human Gro-beta [2]; 611000 M⁻¹ s⁻¹ with human ENA-78 [3]; 1.95e+06 M⁻¹ s⁻¹ with human IL-8 [9]; 5.44e+06 M⁻¹ s⁻¹ with human Gro-beta [10]; 165000 M⁻¹ s⁻¹ with human ENA-78 [11].

B4: humanized penta-specific antibody construct H0M0 (antibody, human IgG1, kappa, V domains shown)
VH: QVQLVQSGAEVKKPGASVKVSCKASGYTFTNYWIVWVRQAPGQGLEWMGDLYSGGGYTFYSENFKGRVTMTRDTSTSTVYMELSSLRSEDTAVYYCARSGYDRTWFAHWGQGTLVTVSS
VL: EIVLTQSPATLSLSPGERATLSCQASQDIESYLSWYQQKPGQAPRLLIYYATRLADGIPARFSGSGSGTDFTLTISSLEPEDFAVYYCLQHGESPPTFGQGTKLEIKR
notes: H0 mature heavy chain with M0 mature light chain
As for B4, the binding result with human Gro-alpha [18], with human GCP-2 [19] and with human Gro-gamma [20] was “binds” throughout.

B5: humanized penta-specific antibody construct H0L7 (antibody, human IgG1, kappa, V domains shown)
VH: QVQLVQSGAEVKKPGASVKVSCKASGYTFTNYWIVWVRQAPGQGLEWMGDLYSGGGYTFYSENFKGRVTMTRDTSTSTVYMELSSLRSEDTAVYYCARSGYDRTWFAHWGQGTLVTVSS
VL: DIQMTQSPSSLSASVGDRVTITCQASQDIESYLSWYQQKPGKAPKLLIYYATRLADGVPSRFSGSGSGTDFTLTISSLQPEDFATYYCLQHGESPPTFGQGTKLEIKR
notes: H0 mature heavy chain with L7 mature light chain
As to B5, the binding result with human Gro-alpha [18], with human GCP-2 [19] and with human Gro-gamma [20] was “binds” in each case.

B6: humanized penta-specific antibody construct H0L8 (antibody, human IgG1, kappa, V domains shown)
VH: QVQLVQSGAEVKKPGASVKVSCKASGYTFTNYWIVWVRQAPGQGLEWMGDLYSGGGYTFYSENFKGRVTMTRDTSTSTVYMELSSLRSEDTAVYYCARSGYDRTWFAHWGQGTLVTVSS
VL: DIQMTQSPSSLSASVGDRVTITCQASQDIESYLSWYQQKPGKAPKLLIYYATRLADGVPSRFSGSGSGTDFTFTISSLQPEDIATYYCLQHGESPPTFGQGTKLEIKR
notes: H0 mature heavy chain with L8 mature light chain
Turning to B6, the binding result in the test with human Gro-alpha [18], in the test with human GCP-2 [19] and with human Gro-gamma [20] was “binds” throughout. For the same molecule, the Kd with human IL-8 [21] was 0.188 nM and 0.143 nM and 0.175 nM and 0.152 nM; with human ENA-78 [22], 0.1 nM and 0.0941 nM and 0.0912 nM and 0.0755 nM. Besides, the koff with human IL-8 [21] is 0.00111 s⁻¹ (2×) and 0.00113 s⁻¹ and 0.00119 s⁻¹; in the test with human ENA-78 [22] it was 0.000288 s⁻¹ and 0.000266 s⁻¹ and 0.000269 s⁻¹ and 0.000248 s⁻¹. Besides, the kon in the test with human IL-8 [21] is 5.9e+06 M⁻¹ s⁻¹ and 7.89e+06 M⁻¹ s⁻¹ and 6.8e+06 M⁻¹ s⁻¹ and 7.3e+06 M⁻¹ s⁻¹; with human ENA-78 [22], 2.88e+06 M⁻¹ s⁻¹ and 2.82e+06 M⁻¹ s⁻¹ and 2.95e+06 M⁻¹ s⁻¹ and 3.29e+06 M⁻¹ s⁻¹.

B7: humanized penta-specific antibody construct H0L10 (antibody, human IgG1, kappa, V domains shown)
VH: QVQLVQSGAEVKKPGASVKVSCKASGYTFTNYWIVWVRQAPGQGLEWMGDLYSGGGYTFYSENFKGRVTMTRDTSTSTVYMELSSLRSEDTAVYYCARSGYDRTWFAHWGQGTLVTVSS
VL: DIQMTQSPSSLSASVGDRVTITCQASQDIESYLSWYQQKPGKAPKLLIYYATRLADGVPSRFSGSGSGQDYTLTISSLQPEDFATYYCLQHGESPPTFGQGTKLEIKR
notes: H0 mature heavy chain with L10 mature light chain
Regarding B7, the binding result with human Gro-alpha [18], in the test with human GCP-2 [19] and with human Gro-gamma [20] was “binds” throughout. The Kd in the test with human ENA-78 [22] is 0.0899 nM and 0.0722 nM and 0.0742 nM and 0.0613 nM.
